Key:
[1] = molecular target: T1, peptide MetSO reductase (Escherichia coli, UniProt P0A744); experiment: Inhibition of the reduction of MetSO-L12 by excess free MetSO; assay type: biochemical, E. coli; conditions: 1×10^-4 M MetSO, about 60 times the concentration of MetSO-L12; read-out: inhibition of the enzymatic activity of peptide MetSO reductase
T1 construct: made in house; host or cells: E. coli Z19 cells (endogenous enzyme, not recombinant; ammonium sulfate, DE-52, Ultrogel AcA-44, DEAE-Sephadex)
T1 sequence (P0A744 2-212): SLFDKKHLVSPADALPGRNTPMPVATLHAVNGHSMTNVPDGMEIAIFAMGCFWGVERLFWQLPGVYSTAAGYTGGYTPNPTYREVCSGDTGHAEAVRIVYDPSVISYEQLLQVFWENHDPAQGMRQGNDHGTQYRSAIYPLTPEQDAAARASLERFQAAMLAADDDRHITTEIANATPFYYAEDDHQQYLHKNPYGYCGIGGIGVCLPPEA
Experimental: The assay for the reduction of MetSO-L12 to L12 is based on the ability of L12-transacetylase to specifically acetylate the amino terminal serine of Met-L12 to form acetyl-Met-L12, i.e. L7. A two-step incubation was used. […] After a 60 min incubation at 37°, the reaction mixtures were placed on ice and to each reaction mixture were added 2 μmol of sodium arsenite, 1.2 μg partially purified L12-transacetylase (see below) and [^3 H] acetyl-CoA (935 pmoles, 237 cpm/pmol) and the volume brought to 50 μl. The second incubation (acetylation reaction) was for 5 min at 37°, after which the reaction mixtures were diluted with 3 ml of cold buffer A and filtered through a nitrocellulose filter. The filters were washed with 10 ml of this same buffer, dissolved in scintillation fluid and the radioactivity determined. Under these conditions L12 and acetyl-L12 are quantitatively retained by the nitrocellulose filter. The results are reported as pmoles of acetyl-L12 formed under these conditions.

[2] = test system: Met-L12; experiment: L12-transacetylase assay: acetylation of Met-L12; assay type: biochemical, E. coli
Experimental: The fractions containing the enzyme activity were pooled (750 mg), concentrated and applied to a hydroxyapatite column (2×15 cm) equilibrated with a buffer containing 25 mM KPO4, pH 6.9, 1 mM β-mercaptoethanol and 10% glycerol. The column was eluted with a gradient from 25 mM to 250 mM KPO4, pH 6.9, containing 1 mM β-mercaptoethanol and 10% glycerol and the fractions containing enzymatic avtivity were pooled and concentrated (72 mg). This procedure yielded a 225 fold purification of the enzyme. Under standard conditions of assay as set forth by Brot and Weissbach [Biochem. Biophys. Res. Commun. 49, 673 (1972)] this fraction acetylated 46 nmols of Met-L12 per mg protein in 5 min. […] These properties are essential in order to use the enzymatic acetylation of Met-L12 as an assay for MetSO-L12 reduction. It was seen that at all concentrations of Met-L12, only one-third of the protein is acetylated.

## C[S+]([O-])CC[C@H](N)C(=O)O (stereo partly shown) [MetSO, methionine sulfoxide]
[1]
  inhibition at 100 µM: < 20%

B1: L12-transacetylase: Partially purified E. coli Q13 enzyme that acetylates the amino terminal serine of Met-L12 to form acetyl-Met-L12 (L7) (protein, UniProt P13857 1-179, looked up)
Ribosomal-protein-serine …: MTETIKVSESLELHAVAENHVKPLYQLICKNKTWLQQSLNWPQFVQSEEDTRKTVQGNVMLHQRGYAKMFMIFKEDELIGVISFNRIEPLNKTAEIGYWLDESHQGQGIISQALQALIHHYAQSGELRRFVIKCRVDNPQSNQVALRNGFILEGCLKQAEFLNDAYDDVNLYARIIDSQ
modifications: partially purified
[2]
  MetSO-L12 as substrate for acetylation: not a substrate
[2]; at all concentrations of Met-L12
  fraction of Met-L12 acetylated: one-third
[2]; in 5 min, standard conditions of assay, hydroxyapatite fraction
  Met-L12 acetylated: 46 nmols per mg protein

From patent US4374928A, “Novel reductase” (Hoffmann-La Roche Inc., priority 1981, dated 1983)
